Columns and labels:
Jak2 = Jak2 (UniProt O60674); test: phosphorylation enrichment, bacterial display (enrichment ratio); higher = better substrate or ligand; peptides without Tyr show the background
c-Src = test: as above
MERTK = MERTK (UniProt Q12866); test: as above
EPHB1 = EPHB1 (UniProt P54762); test: as above
Fes = Fes (UniProt P07332); test: as above
EPHB2 = EPHB2 (UniProt P29323); test: as above
c-Abl (mouse) = test: as above
Fer (mouse) = test: as above
FGFR3 = FGFR3 (UniProt P22607); test: as above
AncSZ = test: as above
FGFR1 = FGFR1 (UniProt P11362); test: as above
Fyn = Fyn (UniProt P06241); test: as above
Hck = Hck (UniProt P08631); test: as above
c-Src SH2 = test: SH2 binding enrichment of the phosphorylated peptide, bacterial display (enrichment ratio); higher = better substrate or ligand; peptides without Tyr show the background
SHP2-C SH2 = test: as above
Grb2 SH2 = Grb2 SH2 (UniProt P62993); test: as above
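For SH2 binding enrichment of the phosphorylated peptide, bacterial display in this document: peptide library displayed on the E. coli surface as eCPX fusions, selected cells deep-sequenced, score is each peptide's frequency after selection divided by its frequency in the input.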
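For phosphorylation enrichment, bacterial display in this document: 11-residue human phosphosite peptides and single-mutation variants displayed on the E. coli surface, counted by deep sequencing, each peptide's frequency after selection divided by its frequency in the unselected input library; frequency after pTyr selection over input frequency; kinase dosed for 20-30% of maximal phosphorylation in three min.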

Sequence of Fes (P07332 whole entry, looked up): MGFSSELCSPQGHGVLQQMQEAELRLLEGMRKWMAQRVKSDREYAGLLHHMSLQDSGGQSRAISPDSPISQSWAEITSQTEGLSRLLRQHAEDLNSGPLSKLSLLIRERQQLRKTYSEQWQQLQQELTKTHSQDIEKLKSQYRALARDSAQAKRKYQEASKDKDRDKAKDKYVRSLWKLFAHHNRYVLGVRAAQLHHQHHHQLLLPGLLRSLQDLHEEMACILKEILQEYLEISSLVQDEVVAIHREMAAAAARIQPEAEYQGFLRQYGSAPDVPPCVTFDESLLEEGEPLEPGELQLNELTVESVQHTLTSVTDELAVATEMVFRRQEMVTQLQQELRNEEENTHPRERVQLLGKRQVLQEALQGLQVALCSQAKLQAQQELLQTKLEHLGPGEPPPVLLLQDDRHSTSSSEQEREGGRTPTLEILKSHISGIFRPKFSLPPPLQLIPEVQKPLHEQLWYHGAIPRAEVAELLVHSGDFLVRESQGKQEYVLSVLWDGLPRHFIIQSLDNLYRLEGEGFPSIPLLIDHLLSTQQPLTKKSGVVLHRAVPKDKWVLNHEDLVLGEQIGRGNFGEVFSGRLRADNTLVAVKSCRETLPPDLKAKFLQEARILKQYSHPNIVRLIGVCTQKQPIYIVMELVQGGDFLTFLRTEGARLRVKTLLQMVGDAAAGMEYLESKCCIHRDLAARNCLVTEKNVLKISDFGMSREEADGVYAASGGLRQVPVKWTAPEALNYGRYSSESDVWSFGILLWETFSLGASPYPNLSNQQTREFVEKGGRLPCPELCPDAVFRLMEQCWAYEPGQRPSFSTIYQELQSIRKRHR
Sequence of FGFR3 (P22607 whole entry, looked up): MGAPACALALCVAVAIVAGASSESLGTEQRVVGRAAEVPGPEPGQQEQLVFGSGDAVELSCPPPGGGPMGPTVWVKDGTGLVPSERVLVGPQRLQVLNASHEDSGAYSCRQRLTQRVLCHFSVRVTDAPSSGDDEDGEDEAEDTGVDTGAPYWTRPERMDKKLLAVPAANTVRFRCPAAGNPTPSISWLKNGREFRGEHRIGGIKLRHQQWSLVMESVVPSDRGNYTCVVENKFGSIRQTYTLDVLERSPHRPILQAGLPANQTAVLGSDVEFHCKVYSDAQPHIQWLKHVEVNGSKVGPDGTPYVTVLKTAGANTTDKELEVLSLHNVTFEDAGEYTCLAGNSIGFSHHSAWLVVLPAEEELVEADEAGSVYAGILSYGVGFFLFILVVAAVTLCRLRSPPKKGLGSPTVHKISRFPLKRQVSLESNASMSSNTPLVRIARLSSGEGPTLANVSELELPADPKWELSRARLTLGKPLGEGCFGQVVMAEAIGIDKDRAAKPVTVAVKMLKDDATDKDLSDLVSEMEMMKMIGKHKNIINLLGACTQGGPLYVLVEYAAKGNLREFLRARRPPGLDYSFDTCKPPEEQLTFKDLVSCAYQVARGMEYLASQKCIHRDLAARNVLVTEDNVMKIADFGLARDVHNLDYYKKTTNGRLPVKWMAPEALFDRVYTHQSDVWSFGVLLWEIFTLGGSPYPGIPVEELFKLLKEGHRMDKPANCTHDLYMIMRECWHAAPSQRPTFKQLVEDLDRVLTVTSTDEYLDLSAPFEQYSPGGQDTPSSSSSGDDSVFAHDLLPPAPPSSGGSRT
Sequence of Grb2 SH2 (P62993 whole entry, looked up, the tested form may be a part): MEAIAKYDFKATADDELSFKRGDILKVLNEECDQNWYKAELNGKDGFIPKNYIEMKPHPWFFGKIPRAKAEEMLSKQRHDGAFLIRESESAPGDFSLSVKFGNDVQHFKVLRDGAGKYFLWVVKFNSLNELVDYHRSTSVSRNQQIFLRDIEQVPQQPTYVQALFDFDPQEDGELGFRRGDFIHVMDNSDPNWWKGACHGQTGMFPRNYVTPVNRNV
Sequence of FGFR1 (P11362 whole entry, looked up): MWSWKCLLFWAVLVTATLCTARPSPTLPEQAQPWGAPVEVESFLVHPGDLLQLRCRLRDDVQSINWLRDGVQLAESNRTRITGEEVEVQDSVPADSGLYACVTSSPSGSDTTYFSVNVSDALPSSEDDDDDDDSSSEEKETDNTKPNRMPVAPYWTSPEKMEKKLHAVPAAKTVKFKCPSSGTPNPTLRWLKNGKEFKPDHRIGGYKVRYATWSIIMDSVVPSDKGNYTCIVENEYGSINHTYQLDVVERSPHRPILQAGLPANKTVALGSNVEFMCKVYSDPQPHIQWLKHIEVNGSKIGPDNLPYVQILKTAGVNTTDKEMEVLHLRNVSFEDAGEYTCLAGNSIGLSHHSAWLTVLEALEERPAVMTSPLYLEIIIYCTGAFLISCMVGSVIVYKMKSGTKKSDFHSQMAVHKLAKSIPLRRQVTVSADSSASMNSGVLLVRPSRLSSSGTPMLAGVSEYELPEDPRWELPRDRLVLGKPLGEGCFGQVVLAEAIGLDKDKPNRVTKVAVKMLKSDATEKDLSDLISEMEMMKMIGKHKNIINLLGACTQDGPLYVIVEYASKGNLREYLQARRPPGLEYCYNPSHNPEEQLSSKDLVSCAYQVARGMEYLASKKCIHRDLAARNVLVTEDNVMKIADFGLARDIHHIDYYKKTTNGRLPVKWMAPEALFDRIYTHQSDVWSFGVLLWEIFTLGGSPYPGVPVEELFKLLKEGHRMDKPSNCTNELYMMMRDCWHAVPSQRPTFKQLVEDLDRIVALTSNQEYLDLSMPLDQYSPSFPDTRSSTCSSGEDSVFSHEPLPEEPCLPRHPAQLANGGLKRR
Sequence of MERTK (Q12866 whole entry, looked up): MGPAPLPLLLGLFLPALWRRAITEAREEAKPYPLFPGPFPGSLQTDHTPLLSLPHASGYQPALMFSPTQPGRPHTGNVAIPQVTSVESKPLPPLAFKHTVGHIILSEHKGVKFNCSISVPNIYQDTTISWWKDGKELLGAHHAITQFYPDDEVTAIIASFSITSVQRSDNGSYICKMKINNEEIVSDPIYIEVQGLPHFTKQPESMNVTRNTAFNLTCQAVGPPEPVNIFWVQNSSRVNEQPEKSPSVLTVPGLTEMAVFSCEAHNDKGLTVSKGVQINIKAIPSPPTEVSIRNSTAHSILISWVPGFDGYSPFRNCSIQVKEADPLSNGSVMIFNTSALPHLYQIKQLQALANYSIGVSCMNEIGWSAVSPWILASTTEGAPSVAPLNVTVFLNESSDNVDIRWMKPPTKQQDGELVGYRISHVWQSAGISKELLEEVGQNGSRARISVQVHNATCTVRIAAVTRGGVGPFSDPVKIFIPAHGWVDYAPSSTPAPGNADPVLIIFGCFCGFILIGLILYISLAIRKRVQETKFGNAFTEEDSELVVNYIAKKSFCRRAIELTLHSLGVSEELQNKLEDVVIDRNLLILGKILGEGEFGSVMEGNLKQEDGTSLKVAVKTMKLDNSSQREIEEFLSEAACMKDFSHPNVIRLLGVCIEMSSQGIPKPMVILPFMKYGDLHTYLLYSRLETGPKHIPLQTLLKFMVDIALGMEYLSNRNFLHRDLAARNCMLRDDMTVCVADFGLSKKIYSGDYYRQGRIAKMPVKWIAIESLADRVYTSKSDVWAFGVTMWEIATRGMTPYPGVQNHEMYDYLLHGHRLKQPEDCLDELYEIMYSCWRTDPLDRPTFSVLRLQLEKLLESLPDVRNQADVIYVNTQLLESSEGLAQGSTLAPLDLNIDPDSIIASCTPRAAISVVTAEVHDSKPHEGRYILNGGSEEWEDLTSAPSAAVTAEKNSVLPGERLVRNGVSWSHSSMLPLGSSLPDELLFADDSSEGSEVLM
Sequence of Fyn (P06241 whole entry, looked up): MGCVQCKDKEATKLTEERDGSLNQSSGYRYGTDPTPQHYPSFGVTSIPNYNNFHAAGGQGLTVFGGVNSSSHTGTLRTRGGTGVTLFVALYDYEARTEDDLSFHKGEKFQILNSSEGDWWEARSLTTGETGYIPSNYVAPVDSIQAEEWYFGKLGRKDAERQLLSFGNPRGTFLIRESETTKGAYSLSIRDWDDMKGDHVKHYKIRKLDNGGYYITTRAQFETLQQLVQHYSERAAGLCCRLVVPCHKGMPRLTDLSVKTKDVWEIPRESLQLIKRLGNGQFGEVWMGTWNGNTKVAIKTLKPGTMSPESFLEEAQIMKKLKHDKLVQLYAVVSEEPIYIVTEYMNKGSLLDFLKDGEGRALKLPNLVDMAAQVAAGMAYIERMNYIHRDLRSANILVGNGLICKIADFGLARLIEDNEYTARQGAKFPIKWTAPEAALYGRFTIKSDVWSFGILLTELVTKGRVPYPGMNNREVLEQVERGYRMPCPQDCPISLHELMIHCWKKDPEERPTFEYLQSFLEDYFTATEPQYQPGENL
Sequence of Hck (P08631 whole entry, looked up): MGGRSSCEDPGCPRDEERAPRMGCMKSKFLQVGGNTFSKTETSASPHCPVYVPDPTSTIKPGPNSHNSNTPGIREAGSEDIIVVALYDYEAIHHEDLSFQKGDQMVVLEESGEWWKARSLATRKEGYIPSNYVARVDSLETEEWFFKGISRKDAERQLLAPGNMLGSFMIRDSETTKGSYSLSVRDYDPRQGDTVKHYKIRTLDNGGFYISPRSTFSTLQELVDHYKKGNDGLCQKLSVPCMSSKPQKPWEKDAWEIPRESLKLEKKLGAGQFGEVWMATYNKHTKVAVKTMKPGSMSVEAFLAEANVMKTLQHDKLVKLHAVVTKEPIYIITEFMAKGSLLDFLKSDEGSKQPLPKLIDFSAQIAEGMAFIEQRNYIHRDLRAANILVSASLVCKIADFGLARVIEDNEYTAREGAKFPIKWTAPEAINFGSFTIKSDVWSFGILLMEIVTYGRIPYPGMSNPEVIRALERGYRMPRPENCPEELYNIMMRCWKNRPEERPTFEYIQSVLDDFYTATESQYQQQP

| Sequence | phosphorylation enrichment (Jak2) | phosphorylation enrichment (c-Src) | phosphorylation enrichment (MERTK) | phosphorylation enrichment (EPHB1) | phosphorylation enrichment (Fes) | phosphorylation enrichment (EPHB2) | phosphorylation enrichment (c-Abl (mouse)) | phosphorylation enrichment (Fer (mouse)) | phosphorylation enrichment (FGFR3) | phosphorylation enrichment (AncSZ) | phosphorylation enrichment (FGFR1) | phosphorylation enrichment (Fyn) | phosphorylation enrichment (Hck) | SH2 binding enrichment (c-Src SH2) | SH2 binding enrichment (SHP2-C SH2) | SH2 binding enrichment (Grb2 SH2) |
| --- | --- | --- | --- | --- | --- | --- | --- | --- | --- | --- | --- | --- | --- | --- | --- | --- |
| CSRCFYQLTKL [AR_Y858_R856C] | 0.728 | 1.14 | 0.55 | 0.45 | 0.904 | 0.459 | 0.564 | 1.85 | 0.587 | 0.864 | 0.601 | 0.429 | 0.362 | 1.18 | 1.52 | 1.24 |
| FAASSYSFSDL [EMD_Y59_S54F] | 0.849 | 0.639 | 0.78 | 0.643 | 1.15 | 0.517 | 0.707 | 0.547 | 0.663 | 0.813 | 0.548 | 0.558 | 0.64 | 0.825 | 0.631 | 0.864 |
| DSFSSYCNAVA [SLC20A2_Y436_YF] | 1.06 | 0.579 | 0.503 | 0.642 | 1.11 | 0.826 | 0.801 | 0.608 | 0.812 | 1.24 | 0.497 | 0.509 | 0.544 | 1.13 | 1.18 | 2 |
| KKLHKYNTQFQ [PIK3R1_Y452_E451K] | 1.55 | 0.416 | 0.487 | 0.511 | 0.909 | 0.46 | 1.06 | 0.503 | 1.13 | 0.577 | 0.496 | 0.355 | 0.425 | 1.24 | 1.67 | 1.42 |
| CNNFIYGGCRG [SPINT2_Y163] | 0.591 | 5.21 | 0.391 | 0.361 | 0.699 | 0.404 | 0.442 | 0.371 | 0.382 | 0.543 | 0.455 | 3.89 | 3.35 | 1.24 | 0.984 | 1.28 |
| CSEETYRLMLQ [RET_Y981_M980T] | 1.03 | 0.627 | 0.451 | 0.65 | 1.29 | 0.611 | 0.81 | 0.703 | 1.06 | 1.28 | 0.741 | 0.586 | 0.576 | 0.467 | 0.553 | 0.643 |
| TETGRYEILTE | 0.658 | 0.44 | 0.421 | 0.532 | 0.765 | 0.466 | 0.389 | 0.354 | 0.427 | 0.742 | 0.543 | 0.387 | 0.517 | 17.2 | 0.426 | 0.772 |
| EMQAAYQKVVA [HBD_Y131_Q126E] | 0.581 | 0.391 | 0.399 | 0.393 | 0.656 | 0.42 | 0.421 | 0.446 | 0.574 | 0.614 | 0.405 | 0.472 | 0.535 | 0.65 | 0.498 | 0.688 |
| LEITWYPFDME [RIPOR2_Y316_V320M] | 2.05 | 0.554 | 0.608 | 1.21 | 2.31 | 0.792 | 1.32 | 0.751 | 1.48 | 1.85 | 0.698 | 0.594 | 0.66 | 0.591 | 1.04 | 0.951 |
| IDAVCYFRMEN [NPHS2_Y194_I192V_YF] | 2.74 | 0.873 | 0.715 | 0.788 | 1.99 | 0.763 | 1.5 | 0.641 | 1.34 | 1.79 | 0.986 | 0.653 | 0.903 | 0.545 | 0.607 | 0.764 |
| KRLKDYLMVLQ [USP25_Y425_T427M] | 0.595 | 0.444 | 0.428 | 0.503 | 0.791 | 0.545 | 0.5 | 0.507 | 0.93 | 0.661 | 1.5 | 0.456 | 0.515 | 1.1 | 1.36 | 1.61 |
| LEQDEYALRSH [HADHB_Y244] | 2.54 | 0.96 | 0.724 | 1.01 | 1.75 | 1.69 | 1.9 | 0.669 | 1.08 | 1.98 | 0.891 | 0.793 | 1.08 | 0.504 | 0.576 | 0.755 |
| GNHISYFQSDG [CACNA1C_Y1757_V1755I_YF] | 0.566 | 0.395 | 0.376 | 0.552 | 0.918 | 0.44 | 0.511 | 0.39 | 0.496 | 0.742 | 0.483 | 0.418 | 0.392 | 0.401 | 0.806 | 0.927 |
| VLDSHYPEDEV [C1QBP_Y188_C186S] | 1.16 | 0.525 | 0.488 | 0.611 | 1.26 | 0.564 | 0.746 | 0.51 | 0.736 | 1.33 | 0.52 | 0.473 | 0.516 | 0.573 | 0.697 | 1.06 |
| FFRDGYMPRQF [GSS_Y270_YF] | 0.592 | 0.345 | 0.493 | 0.415 | 0.82 | 0.4 | 0.482 | 0.407 | 0.55 | 0.634 | 0.597 | 0.393 | 0.455 | 0.509 | 0.784 | 1.02 |
| EKKDVYKTGEQ [CFH_Y1008_A1010T] | 0.437 | 0.438 | 0.382 | 0.394 | 0.663 | 0.411 | 0.42 | 0.447 | 0.524 | 0.7 | 0.478 | 0.471 | 0.561 | 0.376 | 0.494 | 0.771 |
